Results taken from the supplement of paper PMC10567573.

B1: HDAC6 (parent)
chain: YVHHQALLDVKNIAHQNKFGEDMP
B2: ZNF449 (parent)
chain: EPHKCPECGKRFLRSSDLYRHQRL

Variants of: B1
Assay: protein stability index of a GFP-peptide fusion (GPS, HEK-293T) (PSI 1-6); higher = more stable
Conditions: c terminus: a fixed tail appended
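Also: lentivirally expressed fusions sorted by FACS into six bins by GFP to DsRed ratio, PSI derived from sequencing read proportions per bin multiplied by bin number.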

Variant | protein stability index
DVHHQALLDVKNIAHQNKFGEDMP | 4.81
PVHHQALLDVKNIAHQNKFGEDMP | 4.1
CVHHQALLDVKNIAHQNKFGEDMP | 3.29
NVHHQALLDVKNIAHQNKFGEDMP | 4.39
EVHHQALLDVKNIAHQNKFGEDMP | 4.05
LVHHQALLDVKNIAHQNKFGEDMP | 3.3
AVHHQALLDVKNIAHQNKFGEDMP | 4.15
KVHHQALLDVKNIAHQNKFGEDMP | 4.06
IVHHQALLDVKNIAHQNKFGEDMP | 3.21
GVHHQALLDVKNIAHQNKFGEDMP | 4.19
FVHHQALLDVKNIAHQNKFGEDMP | 1.94
HVHHQALLDVKNIAHQNKFGEDMP | 3.66
QVHHQALLDVKNIAHQNKFGEDMP | 4.14
MVHHQALLDVKNIAHQNKFGEDMP | 3.49

Variants of: B2
Assay: as above
Conditions: c terminus: a fixed tail appended

Variant | protein stability index
EPHKCPECGKRFLRSSDLYAHQRL | 4.66
EPHKCPECGKRFLRSSDLYHHQRL | 4.14
EPHKCPECGKRFLRSSDLYDHQRL | 4.5
EPHKCPECGKRFLRSSDLYKHQRL | 4.43
EPHKCPECGKRFLRSSDLYIHQRL | 3.56
EPHKCPECGKRFLRSSDLYWHQRL | 3.6
EPHKCPECGKRFLRSSDLYNHQRL | 4.21
EPHKCPECGKRFLRSSDLYMHQRL | 3.83
EPHKCPECGKRFLRSSDLYCHQRL | 3.69
EPHKCPECGKRFLRSSDLYPHQRL | 2.88
EPHKCPECGKRFLRSSDLYGHQRL | 3.21
EPHKCPECGKRFLRSSDLYLHQRL | 3.55
EPHKCPECGKRFLRSSDLYYHQRL | 3.32
EPHKCPECGKRFLRSSDLYEHQRL | 4.63
EPHKCPECGKRFLRSSDLYFHQRL | 3.42
EPHKCPECGKRFLRSSDLYQHQRL | 4.29
EPHKCPECGKRFLRSSDLYVHQRL | 4.02
EPHKCPECGKRFLRSSDLYTHQRL | 4.01
EPHKCPECGKRFLRSSDLYSHQRL | 4.2
EPHKCPECGKRFLRSSDLYRHIRL | 2.91
EPHKCPECGKRFLRSSDLYRHCRL | 3.97
EPHKCPECGKRFLRSSDLYRHFRL | 3.14
EPHKCPECGKRFLRSSDLYRHGRL | 2.83
EPHKCPECGKRFLRSSDLYRHHRL | 3.27
EPHKCPECGKRFLRSSDLYRHNRL | 3.36

Variant | protein stability index
EPHKCPECGKRFLRSSDLYRHLRL | 3.93
EPHKCPECGKRFLRSSDLYRHDRL | 2.39
EPHKCPECGKRFLRSSDLYRHPRL | 2.4
EPHKCPECGKRFLRSSDLYRHARL | 3.04
EPHKCPECGKRFLRSSDLYRHTRL | 3.3
EPHKCPECGKRFLRSSDLYRHERL | 3.92
EPHKCPECGKRFLRSSDLYRHWRL | 2.78
EPHKCPECGKRFLRSSDLYRHVRL | 3.76
EPHKCPECGKRFLRSSDLYRHYRL | 3.44
EPHKCPECGKRFLRSSDLYRHMRL | 3.83
EPHKCPECGKRFLRSSDLYRHSRL | 3.16
EPHKCPECGKRFLRSSDLYRHRRL | 3.84
EPHKCPECGKRFLRSSDLYRHKRL | 3.28
EPHKCPECGKRFLRSSDHYRHQRL | 3.5
EPHKCPECGKRFLRSSDVYRHQRL | 3.12
EPHKCPECGKRFLRSSDAYRHQRL | 3.08
EPHKCPECGKRFLRSSDMYRHQRL | 3.46
EPHKCPECGKRFLRSSDQYRHQRL | 2.46
EPHKCPECGKRFLRSSDIYRHQRL | 2.52
EPHKCPECGKRFLRSSDDYRHQRL | 2.87
EPHKCPECGKRFLRSSDCYRHQRL | 3.68
EPHKCPECGKRFLRSSDTYRHQRL | 2.48
EPHKCPECGKRFLRSSDWYRHQRL | 3.37
EPHKCPECGKRFLRSSDFYRHQRL | 3.44
EPHKCPECGKRFLRSSDNYRHQRL | 2.67

Variant | protein stability index
EPHKCPECGKRFLRSSDSYRHQRL | 3.15
EPHKCPECGKRFLRSSDKYRHQRL | 2.74
EPHKCPECGKRFLRSSDYYRHQRL | 2.97
EPHKCPECGKRFLRSSDGYRHQRL | 3.05
EPHKCPECGKRFLRSSDPYRHQRL | 2.37
EPHKCPECGKRFLRSSDRYRHQRL | 3.3
EPHKCPECGKRFLRSSDEYRHQRL | 2.92
EPHKCPECGKRFLRSSDLYRWQRL | 1.29
EPHKCPECGKRFLRSSDLYRAQRL | 1.62
EPHKCPECGKRFLRSSDLYRQQRL | 1.91
EPHKCPECGKRFLRSSDLYRNQRL | 2.12
EPHKCPECGKRFLRSSDLYREQRL | 2.15
EPHKCPECGKRFLRSSDLYRMQRL | 2
EPHKCPECGKRFLRSSDLYRSQRL | 2
EPHKCPECGKRFLRSSDLYRRQRL | 2.07
EPHKCPECGKRFLRSSDLYRYQRL | 2.1
EPHKCPECGKRFLRSSDLYRKQRL | 2.67
EPHKCPECGKRFLRSSDLYRTQRL | 2.34
EPHKCPECGKRFLRSSDLYRIQRL | 1.64
EPHKCPECGKRFLRSSDLYRPQRL | 2.14
EPHKCPECGKRFLRSSDLYRFQRL | 2.25
EPHKCPECGKRFLRSSDLYRVQRL | 2.11
EPHKCPECGKRFLRSSDLYRLQRL | 2.4
EPHKCPECGKRFLRSSDLYRCQRL | 2.15
EPHKCPECGKRFLRSSDLYRGQRL | 1.84

Variant | protein stability index
EPHKCPECGKRFLRSSDLYRDQRL | 2.79
EPHKCPECGKRFLRYSDLYRHQRL | 4.03
EPHKCPECGKRFLRVSDLYRHQRL | 3.58
EPHKCPECGKRFLRWSDLYRHQRL | 3.52
EPHKCPECGKRFLRSSLLYRHQRL | 2.81
EPHKCPECGKRFLRSSILYRHQRL | 2.04
EPHKCPECGKRFLRSSYLYRHQRL | 2.21
EPHKCPECGKRFLRSSGLYRHQRL | 2.58
EPHKCPECGKRFLRSSHLYRHQRL | 2.87
EPHKCPECGKRFLRSSFLYRHQRL | 1.68
EPHKCPECGKRFLRSSELYRHQRL | 3.82
EPHKCPECGKRFLRSSVLYRHQRL | 1.69
EPHKCPECGKRFLRSSRLYRHQRL | 2.34
EPHKCPECGKRFLRSSQLYRHQRL | 2.59
EPHKCPECGKRFLRSSMLYRHQRL | 2.35
EPHKCPECGKRFLRSSSLYRHQRL | 2.61
EPHKCPECGKRFLRSSPLYRHQRL | 2.38
EPHKCPECGKRFLRSSCLYRHQRL | 2.66
EPHKCPECGKRFLRSSTLYRHQRL | 2.36
EPHKCPECGKRFLRSSALYRHQRL | 2.32
EPHKCPECGKRFLRSSWLYRHQRL | 1.72
EPHKCPECGKRFLRSSNLYRHQRL | 2.22
EPHKCPECGKRFLRSSKLYRHQRL | 2.33
EPHKCPECGKRFLRSSDLYRHQRK | 4
EPHKCPECGKRFLRSSDLYRHQRV | 3.82

Variant | protein stability index
EPHKCPECGKRFLRSSDLYRHQRY | 3.31
EPHKCPECGKRFLRSSDLYRHQRN | 4.29
EPHKCPECGKRFLRSSDLYRHQRC | 4.97
EPHKCPECGKRFLRSSDLYRHQRW | 3.01
EPHKCPECGKRFLRSSDLYRHQRH | 4.18
EPHKCPECGKRFLRSSDLYRHQRS | 4.4
EPHKCPECGKRFLRSSDLYRHQRR | 3.84
EPHKCPECGKRFLRSSDLYRHQRP | 3.85
EPHKCPECGKRFLRSSDLYRHQRT | 4.06
EPHKCPECGKRFLRSSDLYRHQRG | 4.52
EPHKCPECGKRFLRSSDLYRHQRF | 3.23
EPHKCPECGKRFLRSSDLYRHQRI | 3.63
EPHKCPECGKRFLRSSDLYRHQRM | 3.94
EPHKCPECGKRFLRSSDLYRHQRD | 4.98
EPHKCPECGKRFLRSSDLYRHQRA | 3.83
EPHKCPECGKRFLRSSDLYRHQRQ | 4.6
EPHKCPECGKRFLRSSDLYRHQRE | 4.95
EPHKCPECGKRFLRSSDLYRHQVL | 3.16
EPHKCPECGKRFLRSSDLYRHQEL | 4.47
EPHKCPECGKRFLRSSDLYRHQWL | 2.94
EPHKCPECGKRFLRSSDLYRHQSL | 4.11
EPHKCPECGKRFLRSSDLYRHQML | 3.47
EPHKCPECGKRFLRSSDLYRHQFL | 3.43
EPHKCPECGKRFLRSSDLYRHQYL | 3.75
EPHKCPECGKRFLRSSDLYRHQHL | 3.84

Variant | protein stability index
EPHKCPECGKRFLRSSDLYRHQQL | 4.43
EPHKCPECGKRFLRSSDLYRHQNL | 4.4
EPHKCPECGKRFLRSSDLYRHQPL | 2.98
EPHKCPECGKRFLRSSDLYRHQTL | 4.01
EPHKCPECGKRFLRSSDLYRHQKL | 4.27
EPHKCPECGKRFLRSSDLYRHQGL | 3.54
EPHKCPECGKRFLRSSDLYRHQAL | 3.74
EPHKCPECGKRFLRSSDLYRHQIL | 3.01
EPHKCPECGKRFLRSSDLYRHQCL | 5.02
EPHKCPECGKRFLRSSDLYRHQLL | 3.7
EPHKCPECGKRFLRSSDLYRHQDL | 4.32
EPHKCPECGKRFLRSYDLYRHQRL | 3.05
EPHKCPECGKRFLRSPDLYRHQRL | 2.99
EPHKCPECGKRFLRSMDLYRHQRL | 3.4
EPHKCPECGKRFLRSFDLYRHQRL | 2.09
EPHKCPECGKRFLRSCDLYRHQRL | 3.62
EPHKCPECGKRFLRSKDLYRHQRL | 3.81
EPHKCPECGKRFLRSTDLYRHQRL | 3.94
EPHKCPECGKRFLRSHDLYRHQRL | 3.55
EPHKCPECGKRFLRSLDLYRHQRL | 2.72
EPHKCPECGKRFLRSIDLYRHQRL | 3.26
EPHKCPECGKRFLRSQDLYRHQRL | 4.27
EPHKCPECGKRFLRSWDLYRHQRL | 2.66
EPHKCPECGKRFLRSNDLYRHQRL | 3.7
EPHKCPECGKRFLRSVDLYRHQRL | 3.81

Variant | protein stability index
EPHKCPECGKRFLRSGDLYRHQRL | 3.54
EPHKCPECGKRFLRSEDLYRHQRL | 4.99
EPHKCPECGKRFLRSRDLYRHQRL | 3.52
EPHKCPECGKRFLRSADLYRHQRL | 3.82
EPHKCPECGKRFLRSDDLYRHQRL | 4.06
EPHKCPECGKRFLRSSDLSRHQRL | 3.68
EPHKCPECGKRFLRSSDLARHQRL | 4.05
EPHKCPECGKRFLRSSDLIRHQRL | 3.86
EPHKCPECGKRFLRSSDLRRHQRL | 3.55
EPHKCPECGKRFLRSSDLVRHQRL | 3.89
EPHKCPECGKRFLRSSDLHRHQRL | 3.99
EPHKCPECGKRFLRSSDLTRHQRL | 3.6
EPHKCPECGKRFLRSSDLFRHQRL | 3.96
EPHKCPECGKRFLRSSDLQRHQRL | 3.84
EPHKCPECGKRFLRSSDLMRHQRL | 3.65
EPHKCPECGKRFLRSSDLCRHQRL | 4.7
EPHKCPECGKRFLRSSDLWRHQRL | 2.86
EPHKCPECGKRFLRSSDLNRHQRL | 3.4
EPHKCPECGKRFLRSSDLKRHQRL | 3.92
EPHKCPECGKRFLRSSDLERHQRL | 4.63
EPHKCPECGKRFLRSSDLPRHQRL | 2.62
EPHKCPECGKRFLRSSDLDRHQRL | 4.68
EPHKCPECGKRFLRSSDLLRHQRL | 4.04
EPHKCPECGKRFLRSSDLGRHQRL | 2.92
